Consider 29 molecules from patent US20240116985A1 (published 2024).

To fix the notation:
B1: I-2119 (peptide)
peptide: Ac-[αAllylPro]D[tBuAla][B5(4)]DHAA[Phe(3-COOH)]N[PyrS2″][3Thi][Bta]Q-NH2
modifications: staple 1-4, 4-11; also: later eluting HPLC isomer composition
B2: I-2121 (peptide)
peptide: Ac-[αAllylPro]D[tBuAla][B5(4)]DHAA[Phe(3-COOH)][hSer][PyrS2″][3Thi][Bta]Q-NH2
modifications: staple 1-4, 4-11; also: later eluting HPLC isomer composition
B3: I-2114 (peptide)
peptide: Ac-[αAllylPro]D[tBuAla][B5(4)]D[hTyr]AA[Phe(3-COOH)]N[PyrS2″][3Thi][Bta]Q-NH2
modifications: staple 1-4, 4-11; also: earlier eluting HPLC isomer composition
B4: I-2126 (peptide)
peptide: Ac-[αAllylPro]D[tBuAla][B5(4)]DYAA[Phe(3-COOH)]L[PyrS2″][3Thi][Bta]Q-NH2
modifications: staple 1-4, 4-11
B5: I-2122 (peptide)
peptide: Ac-[αAllylPro]D[tBuAla][B5(4)]DHAA[Phe(3-COOH)]L[PyrS2″][3Thi][Bta]Q-NH2
modifications: staple 1-4, 4-11; also: earlier eluting HPLC isomer composition
B6: I-2115 (peptide)
peptide: Ac-[αAllylPro]D[tBuAla][B5(4)]D[hTyr]AA[Phe(3-COOH)]N[PyrS2″][3Thi][Bta]Q-NH2
modifications: staple 1-4, 4-11; also: later eluting HPLC isomer composition
B7: I-2129 (peptide)
peptide: Ac-[αAllylPro]D[tBuAla][B5(4)]DWAA[Phe(3-COOH)]L[PyrS2″][3Thi][Bta]Q-NH2
modifications: staple 1-4, 4-11
B8: I-2100 (peptide)
peptide: Ac-[αAllylPro]D[tBuAla][B5(4)]D[Phe(3-COOH)]A[dA]FL[PyrS2″][3Thi][Bta][dA]-NH2
modifications: staple 1-4, 4-11
B9: I-2120 (peptide)
peptide: Ac-[αAllylPro]D[tBuAla][B5(4)]DHAA[Phe(3-COOH)][hSer][PyrS2(4)][3Thi][Bta]Q-NH2
modifications: staple 1-4, 4-11; reading uncertain; also: earlier eluting HPLC isomer composition, printed as Ac-PL3-Asp-Npg-B5-Asp-His-Ala-Ala-3COOHF-Hse-PyrS2-3Thi-BztA-Gln-NH2
B10: I-2125 (peptide)
peptide: Ac-[αAllylPro]D[tBuAla][B5(4)]DYAA[Phe(3-COOH)][hSer][PyrS2″][3Thi][Bta]Q-NH2
modifications: staple 1-4, 4-11; also: later eluting HPLC isomer composition
B11: I-2116 (peptide)
peptide: Ac-[αAllylPro]D[tBuAla][B5(4)]D[hTyr]AA[Phe(3-COOH)][hSer][PyrS2″][3Thi][Bta]Q-NH2
modifications: staple 1-4, 4-11; also: earlier eluting HPLC isomer composition
B12: I-2124 (peptide)
peptide: Ac-[αAllylPro]D[tBuAla][B5(4)]DYAA[Phe(3-COOH)][hSer][PyrS2″][3Thi][Bta]Q-NH2
modifications: staple 1-4, 4-11; also: earlier eluting HPLC isomer composition
B13: I-2109 (peptide)
peptide: Ac-[αAllylPro]N[Cha][B5(4)]DQ[Lys(iPr)]AFN[PyrS2″]F[Bta]H-NH2
modifications: staple 1-4, 4-11
B14: I-2098 (peptide)
peptide: Ac-[αAllylPro]D[tBuAla][B5(4)]D[Phe(3-COOH)]A[dA]FL[PyrS2″][2F3MeF][Bta]A-NH2
modifications: staple 1-4, 4-11; also: earlier-eluting HPLC isomer composition
B15: I-2128 (peptide)
peptide: Ac-[αAllylPro]D[tBuAla][B5(4)]DWAA[Phe(3-COOH)][hSer][PyrS2″][3Thi][Bta]Q-NH2
modifications: staple 1-4, 4-11
B16: I-2117 (peptide)
peptide: Ac-[αAllylPro]D[tBuAla][B5(4)]D[hTyr]AA[Phe(3-COOH)][hSer][PyrS2″][3Thi][Bta]Q-NH2
modifications: staple 1-4, 4-11; also: later eluting HPLC isomer composition
B17: I-2118 (peptide)
peptide: Ac-[αAllylPro]D[tBuAla][B5(4)]DHAA[Phe(3-COOH)]N[PyrS2″][3Thi][Bta]Q-NH2
modifications: staple 1-4, 4-11; also: earlier eluting HPLC isomer composition
B18: I-2102 (peptide)
peptide: Ac-[αAllylPro]N[Cha][B5(4)]DQ[Lys(iPr)]AF[Lys(iPr)][PyrS2″]F[Bta][hSer]-NH2
modifications: staple 1-4, 4-11
B19: I-2111 (peptide)
peptide: Ac-[αAllylPro]N[Cha][B5(4)]DQ[Lys(iPr)]AFN[PyrS2″]F[Bta]N-NH2
modifications: staple 1-4, 4-11
B20: I-2127 (peptide)
peptide: Ac-[αAllylPro]D[tBuAla][B5(4)]DWAA[Phe(3-COOH)]N[PyrS2″][3Thi][Bta]Q-NH2
modifications: staple 1-4, 4-11
B21: I-2123 (peptide)
peptide: Ac-[αAllylPro]D[tBuAla][B5(4)]DHAA[Phe(3-COOH)]L[PyrS2″][3Thi][Bta]Q-NH2
modifications: staple 1-4, 4-11; also: later eluting HPLC isomer composition
B22: I-2110 (peptide)
peptide: Ac-[αAllylPro]N[Cha][B5(4)]DQ[Lys(iPr)]AFN[PyrS2″]F[Bta]K-NH2
modifications: staple 1-4, 4-11
B23: I-1511: Ac-PL3-Asp-Tyr-B5-Asp-Asp-Ala-Ala-Phe-Leu-PyrS2-3Thi-BztA-Gln-NH2 (peptide)
peptide: Ac-[αAllylPro]DY[B5(27)]DDAAFL[PyrS2][3Thi][Bta]Q-NH2
modifications: staple 1-4, 4-11
B24: I-1505: Ac-PL3-Asp-Npg-B5-Asp-Asp-Ala-F2PipAbu-Phe-Leu-PyrS2-3Thi-BztA-Gln-NH2 (peptide)
peptide: Ac-[αAllylPro]D[tBuAla][B5(27)]DDA[F2PipAbu]FL[PyrS2][3Thi][Bta]Q-NH2
modifications: staple 1-4, 4-11
B25: I-1512: Ac-PL3-Asp-Tyr-B5-Asp-Asp-Ala-Ala-Phe-Leu-PyrS2-3Thi-BztA-Hse-NH2 (peptide)
peptide: Ac-[αAllylPro]DY[B5(5)]DDAAFL[PyrS2″][3Thi][Bta][hSer]-NH2
modifications: staple 1-4, 4-11
B26: I-1513: Ac-PL3-Asp-Ser-B5-Asp-Asp-Ala-Ala-Phe-Leu-PyrS2-3Thi-BztA-Gln-NH2 (peptide)
peptide: Ac-[αAllylPro]DS[B5(5)]DDAAFL[PyrS2″][3Thi][Bta]Q-NH2
modifications: staple 1-4, 4-11
B27: I-1510: Ac-PL3-Asp-Phe-B5-Asp-Asp-Ala-Ala-Phe-Leu-PyrS2-3Thi-BztA-Hse-NH2 (peptide)
peptide: Ac-[αAllylPro]DF[B5(27)]DDAAFL[PyrS2][3Thi][Bta][hSer]-NH2
modifications: staple 1-4, 4-11
B28: I-1509: Ac-PL3-Asp-Phe-B5-Asp-Asp-Ala-Ala-Phe-Leu-PyrS2-3Thi-BztA-Gln-NH2 (peptide)
peptide: Ac-[αAllylPro]DF[B5(5)]DDAAFL[PyrS2(4)][3Thi][Bta]Q-NH2
modifications: staple 1-4, 4-11; not fully specified; printed as I-1509: Ac-PL3-Asp-Phe-B5-Asp-Asp-Ala-Ala-Phe-Leu-PyrS2-3Thi-BztA-Gln-NH2; reading uncertain
B29: I-1507: Ac-PL3-Asp-Npg-B5-Asp-Asp-Ala-MorphAsn-Phe-Leu-PyrS2-3Thi-BztA-Gln-NH2 (peptide)
peptide: Ac-[αAllylPro]D[tBuAla][B5(27)]DDA[MorphAsn]FL[PyrS2][3Thi][Bta]Q-NH2
modifications: staple 1-4, 4-11

Starred links: 1 amine or outer side, 2 acyl side, 3 side chain; linkers in the order of their positions; H or OH if unused. Positions of bridges follow the written chain, without caps; N, C: chain ends. Non-standard residues stand in square brackets, D forms with d. Primed or numbered codes have the meaning given here. PyrS2″ = (S)-3-amino-1-((pent-4-en-1-yloxy)carbonyl)pyrrolidine-3-carboxylic acid (stapling residue), C=CCCCOC(=O)N1CC[C@@](N[*:1])(C(=O)[*:2])C1; B5(4) = 2,2-bis(4-pentenyl)glycine = 2-amino-2-(pent-4-en-1-yl)hept-6-enoic acid (stitching residue), C=CCCCC(CCCC=C)(N[*:1])C(=O)[*:2]; B5(5) = 2,2-bis(4-pentenyl)glycine, 2-amino-2-(pent-4-en-1-yl)hept-6-enoic acid (stitching residue), C=CCCCC(CCCC=C)(N[*:1])C(=O)[*:2]; PyrS2 = (S)-3-amino-1-((pent-4-en-1-yloxy)carbonyl)pyrrolidine-3-carboxylic acid, C=CCCCOC(=O)N1CC[C@@](N[*:1])(C(=O)[*:2])C1; B5(27) = 2-amino-2-(pent-4-en-1-yl)hept-6-enoic acid (two alkene side-chain arms), C=CCCCC(CCCC=C)(N[*:1])C(=O)[*:2]; F2PipAbu = (S)-2-amino-4-(4,4-difluoropiperidin-1-yl)butanoic acid, O=C([C@H](CCN1CCC(F)(F)CC1)N[*:1])[*:2]; MorphAsn = (S)-2-amino-4-morpholino-4-oxobutanoic acid, O=C(C[C@H](N[*:1])C(=O)[*:2])N1CCOCC1; Phe(3-COOH) = N[C@@H](Cc1cccc(C(=O)O)c1)C(=O)O; 2F3MeF = Cc1cccc(C[C@H](N[*:1])C(=O)[*:2])c1F; Bta = N[C@@H](Cc1csc2ccccc12)C(=O)O; Lys(iPr) = CC(C)NCCCC[C@H](N)C(=O)O; hTyr = N[C@@H](CCc1ccc(O)cc1)C(=O)O; αAllylPro = C=CC[C@@]1(C(=O)O)CCCN1; tBuAla = CC(C)(C)C[C@H](N)C(=O)O; 3Thi = N[C@@H](Cc1ccsc1)C(=O)O; Cha = N[C@@H](CC1CCCCC1)C(=O)O; PyrS2(4) = not defined here; hSer = N[C@@H](CCO)C(=O)O Some results are limits rather than exact numbers.

The first assay concerns the target T1, Bcat-Halo (UniProt P35222 1-781).
T1 sequence (looked up): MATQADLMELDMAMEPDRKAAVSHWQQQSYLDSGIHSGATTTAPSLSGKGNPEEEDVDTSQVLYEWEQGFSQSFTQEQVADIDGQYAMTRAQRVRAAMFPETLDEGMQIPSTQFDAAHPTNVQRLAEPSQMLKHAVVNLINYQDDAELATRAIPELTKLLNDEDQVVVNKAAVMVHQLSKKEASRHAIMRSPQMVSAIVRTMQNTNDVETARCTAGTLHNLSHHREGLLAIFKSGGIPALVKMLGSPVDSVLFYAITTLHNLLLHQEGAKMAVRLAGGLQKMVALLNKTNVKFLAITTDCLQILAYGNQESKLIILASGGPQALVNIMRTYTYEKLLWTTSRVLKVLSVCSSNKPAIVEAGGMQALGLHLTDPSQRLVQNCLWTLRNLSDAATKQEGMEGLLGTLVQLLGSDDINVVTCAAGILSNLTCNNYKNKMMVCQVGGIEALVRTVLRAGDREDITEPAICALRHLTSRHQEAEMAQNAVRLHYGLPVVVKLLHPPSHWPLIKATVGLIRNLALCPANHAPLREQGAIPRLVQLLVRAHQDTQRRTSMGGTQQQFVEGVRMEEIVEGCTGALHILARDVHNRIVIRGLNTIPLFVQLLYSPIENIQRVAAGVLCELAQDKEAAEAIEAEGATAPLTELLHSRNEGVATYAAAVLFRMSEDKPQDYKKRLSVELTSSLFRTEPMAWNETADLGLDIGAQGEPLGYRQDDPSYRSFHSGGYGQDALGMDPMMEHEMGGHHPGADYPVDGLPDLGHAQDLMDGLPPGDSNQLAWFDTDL
In words: cell-based or functional assay.
For the molecule B1, the “NanoBRET Abs IC50” value was above 20 µM.
As for B2, the “NanoBRET Abs IC50” value is above 20 µM.
Same read-out and setting: in the case of B3 it was above 20 µM; in that of B4, 29.5 µM; in that of B5, 34.4 µM.
With B6, the “NanoBRET Abs IC50” value was above 20 µM.
Consider B7, for which the “NanoBRET Abs IC50” value turned out to be 44 µM.
With B8, the “NanoBRET Abs IC50” value was above 20 µM.
On to B9, for which the “NanoBRET Abs IC50” value is 37.2 µM.
On to B10, for which the “NanoBRET Abs IC50” value amounted to 41.2 µM.
As to B11, the “NanoBRET Abs IC50” value was determined as 33.4 µM.
Same read-out and setting: in the case of B12 it was 38.9 µM; in that of B13, above 20 µM.
For B14, the “NanoBRET Abs IC50” value is above 20 µM.
For B15, the “NanoBRET Abs IC50” value is 27 µM.
As to B16, the “NanoBRET Abs IC50” value is above 20 µM.
Still for that read-out and setting: the result for B17 reads above 20 µM.
Same read-out and setting: in the case of B18 it was above 20 µM; in that of B19, above 20 µM; in that of B20, 40.8 µM.
Regarding B21, the “NanoBRET Abs IC50” value came out at 26.9 µM.
Regarding B22, the “NanoBRET Abs IC50” value is above 20 µM.

The target in another assay is T2, B-cat-Halo (beta-catenin HaloTag NanoBRET construct expressed in HEK293 cells) (UniProt P35222 1-781, HaloTag NanoBRET 618 Ligand bound to the HaloTag).
T2 sequence (looked up): T1 sequence (looked up)
In words: cell-based or functional assay.
In the case of B23, the “NanoBRET Abs IC50” value was above 20 µM.
Take B24: the “NanoBRET Abs IC50” value is above 20 µM.
For B25, the “NanoBRET Abs IC50” value is above 20 µM.
Regarding B26, the “NanoBRET Abs IC50” value was above 20 µM.
Same read-out and setting: the result for B27 reads 31.8 µM; that for B28, 24.5 µM.
Turning to B29, the “NanoBRET Abs IC50” value is above 20 µM.
